From US20230203138A1 (TRUSTEES OF COLUMBIA UNIVERSITY IN THE CITY OF NEW YORK, published 2023) come the findings set out here.

One experiment concerns the target SARS-CoV Spike trimer (SARS-CoV, UniProt P59594 14-1190). The experiment is described as follows: SPR (FIG. 37D).
Experiment [1] concerns the target SARS-CoV-2 receptor binding domain (RBD) (SARS-CoV-2, UniProt P0DTC2 319-591). Nature of the experiment: ELISA (FIG. 10). (In an ELISA, binding on a coated surface is turned into a signal by an enzyme label.)

B1: monoclonal antibody 2-4 (antibody, V domains shown)
VH: QVQLVQSGAEVKKPGASVKVSCKASGYTFTGYYMHWVRQAPGQGLEWMGWINPNSGGTNYTQMFQGRVTMTRDTSISTAYMEVSRLRSDDTAVYYCARDRSWAVVYYYMDVWGKGTTVTVSS
VL: QSALTQPPSASGSPGQSVTISCTGTSSDVGGYNYVSWYQQHPGKAPKLMIYEVSKRPSGVPDRFSGSKSGNTASLTVSGLQAEDEADYYCSSYAGSNNLVFGGGTKLTVL
In the case of B1, the binding result with SARS-CoV Spike trimer was “no binding”.

B2: monoclonal antibody 2-7 (antibody, V domains shown)
VH: QITLKESGPTLVKPTQTLTLTCTFSGFSLSTSGVGVGWIRQPPGKALEWLALIYWDDDKRYSPSLKSRLTITKDTSKNQVVLTMTNMDPVDTATYYCAHHKIERIFDYWGQGTLVTVSS
VL: QSALAQPASVSGSPGQSITISCTGTSSDVGAYNYVSWYQQHPGKAPKLMIYDVSKRPSGVSNRFSGSKSGNTASLTISGLQAEDEADYYCSSYTTSSTVFGGGTKLTVL
Regarding B2, in experiment [1], the binding result was “binds”.

B3: monoclonal antibody 4-20 (antibody, V domains shown)
VH: QVQLLQSGAEVKKPGASVKVSCKASGYSFTSYYMHWVRQAPGQGLEWMGIINPSGGGTTYAQKFQGRVTMTRDTSTSTVYMELSSLRSEDTAVYYCARPGGGSYQEFDYWGQGTLVTVSS
VL: DIQMTQSPSSLSASVGDRVTITCRASQSISSYLNWYQQKPGKAPKLLISAASSLQSGVPSRFSGSGSGTDFTLTISSLQPEDFATYYCQQSYNTLQVTFGGGTKVEIK
Take B3: the binding result in experiment [1] was “binds”.

B4: monoclonal antibody 1-20 (antibody, V domains shown)
VH: EVQLVESGGGLIQPGGSLRLSCAASGLTVSSNYMSWVRQAPGKGLEWVSVIYSGGSTFYADSVKGRFTISRDNSKNTLYLQMNSLRAEDTAVYYCARDLFYYGMDVWGQGTTVTVSS
VL: DIQLTQSPSFLSASVGDRVTITCRASQGISSYLAWYQQKPGKAPKLLIYAASTLQSGVPSRFSGSGSGTEFTLTISSLQPEDFATYYCQQLNSYPCFGPGTKVDIK
For the molecule B4, in experiment [1], the binding result was “binds”.

B5: monoclonal antibody 2-30 (antibody, V domains shown)
VH: QVQLVESGGGVVQPGRSLRLSCAASGFTFSSYTMHWVRQAPGKGLEWVAAISYDGNNKYYADSVKGRFTISRDNSKNTLYLQMNSLRAEDTAVYYCARSILYGGGMDVWGQGTTVTVSS
VL: DIQLTQSPSSLSASVGDRVTITCRASQGISSYLAWYQQKPGQAPKLLIYAASTLQSGVPSRFSGSGSGTDFTLTISSLQPEDFATYYCQQLNSYPLTFGGGTKVEIK
With B5, the binding result in experiment [1] is listed as “binds”.
